According to patent US20250326839A1 (VIGIL NEUROSCIENCE, published 2025):
Changes are numbered by the printed parent chain.

T1: human TREM2 (human, UniProt Q9NZC2 19-174, limits assumed)
T1 construct: also called triggering receptor expressed on myeloid cells 2
T1 sequence: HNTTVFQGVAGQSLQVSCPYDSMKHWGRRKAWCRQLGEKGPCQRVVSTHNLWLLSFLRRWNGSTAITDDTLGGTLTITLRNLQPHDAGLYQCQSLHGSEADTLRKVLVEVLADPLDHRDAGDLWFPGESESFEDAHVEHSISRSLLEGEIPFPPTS

B1: V15 (antibody, V domains shown)
VH: EVQLVQSGAEVKKPGESLKISCKGSGYSFASYWIAWVRQMPGKGLEWMGTIYPGDSDTRYSPSFQGQVTISADKSISTAYLQWSSLKASDTAMYFCARSRTFYYDSSDYFDYWGQGTLVTVSS
VL: DIQMTQSPSSVSASVGDRVTITCRASQGISSWLAWYQQKPGKAPKLLIYAASWLQNGVPSRFSGSGSGTDFTLTISSLQPEDFATYFCQQADSYPRTFGQGTKLEIK
notes: also called 6E7 variant V15
B2: V24 (antibody, V domains shown)
VH: B1 VH with A30T, T50I, T58V
VL: B1 VL with W53S, N56K, Y94F, R96H
notes: also called 6E7 variant V24
B3: V50 (antibody, V domains shown)
VH: B1 VH with A30G, T50V, S99Q, F110L
VL: B1 VL with W53S, L54R, Y94L
notes: also called 6E7 variant V50
B4: V48 (antibody, V domains shown)
VH: B1 VH with A30G, T50I, T58V, S99M
VL: B1 VL with W53S, N56T, Y94L
notes: also called 6E7 variant V48
B5: V40 (antibody, V domains shown)
VH: B1 VH with A30G, T50I, T58V, S99Q, F110S
VL: B1 VL with W53S, N56L, S93R, Y94F
notes: also called 6E7 variant V40
B6: V38 (antibody, V domains shown)
VH: B1 VH with A30G, T50I, T58V, S99Q
VL: B1 VL with W53S, L54R, Y94H
notes: also called 6E7 variant V38
B7: V37 (antibody, V domains shown)
VH: B1 VH with F29H, A30T, T50I, Q65A
VL: B1 VL with W53S, N56W
notes: also called 6E7 variant V37
B8: V39 (antibody, V domains shown)
VH: B1 VH with A30G, T50I, S61N, S99G
VL: B1 VL with W53S, Q55V, Y94S
notes: also called 6E7 variant V39
B9: V41 (antibody, V domains shown)
VH: B1 VH with A30T, S99Q
VL: B1 VL with W53S, Y94F
notes: also called 6E7 variant V41
B10: V60 (antibody, V domains shown)
VH: B1 VH with S28H, A30T, T50I, T58V, S99Q, F110S
VL: B1 VL with W53S, N56R, Q89G, Y94F
notes: also called 6E7 variant V60; LV-108/HV-108
B11: V61 (antibody, V domains shown)
VH: B1 VH with A30S, T50I, S61N, S99G
VL: B1 VL with W53S, Q55V, Y94L
notes: also called 6E7 variant V61
B12: V53 (antibody, V domains shown)
VH: B1 VH with A30T, T50I, S63H, S99Q
VL: B1 VL with W53S, Y94F
notes: also called 6E7 variant V53
B13: V28 (antibody, V domains shown)
VH: B1 VH with A30Q, S99Q, Y103F
VL: B1 VL with W53S, N56S, Y94L
notes: also called 6E7 variant V28
B14: V36 (antibody, V domains shown)
VH: B1 VH with A30T, I34L, T50I
VL: B1 VL with W53S, L54R
notes: also called 6E7 variant V36
B15: V27 (antibody, V domains shown)
VH: B1 VH with A30T, T50I, S61A, A97V
VL: B1 VL with W53S, N56R, Y94F
notes: also called 6E7 variant V27; LV-103/HV-103
B16: V29 (antibody, V domains shown)
VH: B1 VH with A30K, T50I, S99Q
VL: B1 VL with W53S, Y94F
notes: also called 6E7 variant V29
B17: V49 (antibody, V domains shown)
VH: B1 VH with A30N, Y60L
VL: B1 VL with W53S, L54R
notes: also called 6E7 variant V49; LV-106/HV-106
B18: V17 (antibody, V domains shown)
VH: B1 VH with A30G, T50I
VL: B1 VL with W53S, L54R, Y94S
notes: also called 6E7 variant V17
B19: V26 (antibody, V domains shown)
VH: B1 VH with A30T, A35G, S99Q, F102M, Y112A
VL: B1 VL with W53S, N56R
notes: also called 6E7 variant V26
B20: V25 (antibody, V domains shown)
VH: B1 VH with A30G, T50L
VL: B1 VL with W53S, Q55A, Y94M
notes: also called 6E7 variant V25
B21: V16 (antibody, V domains shown)
VH: B1 VH with F29M, A30T, T50I, S56G
VL: B1 VL with W53N, Y94F
notes: also called 6E7 variant V16
B22: V52 (antibody, V domains shown)
VH: B1 VH with A30E, T50I, S99G
VL: B1 VL with W53S, N56R, S93R, Y94F
notes: also called 6E7 variant V52; LV-107/HV-107
B23: V51 (antibody, V domains shown)
VH: B1 VH with A30T, T50I, T58V, S99G, Y112N
VL: B1 VL with W53S, L54R, Y94F
notes: also called 6E7 variant V51

What was measured:
human TREM2 [1] = molecular target: T1, human TREM2; assay: 1st screen, 10 nM Ab
human TREM2 [2] = molecular target: T1, human TREM2; assay: 2nd screen, 2 nM
human TREM2 [3] = molecular target: T1, human TREM2; assay: 2nd screen, 10 nM

Binder | Binding Signal (human TREM2 [1]) | Binding Signal (human TREM2 [2]) | Binding Signal (human TREM2 [3])
B1 | 5.23 fold over 6E7 parental antibody | 4.72 fold over 6E7 parental antibody | 4.78 fold over 6E7 parental antibody
B2 | 2.64 fold over 6E7 parental antibody | 1.42 fold over 6E7 parental antibody | 2.9 fold over 6E7 parental antibody
B3 | 4.1 fold over 6E7 parental antibody | 3.39 fold over 6E7 parental antibody | 4.16 fold over 6E7 parental antibody
B4 | 2.42 fold over 6E7 parental antibody | 2.3 fold over 6E7 parental antibody | 2.54 fold over 6E7 parental antibody
B5 | 4.48 fold over 6E7 parental antibody | 3.41 fold over 6E7 parental antibody | 4.16 fold over 6E7 parental antibody
B6 | 4.34 fold over 6E7 parental antibody | 3.44 fold over 6E7 parental antibody | 4.36 fold over 6E7 parental antibody
B7 | 3.46 fold over 6E7 parental antibody | 3.69 fold over 6E7 parental antibody | 3.49 fold over 6E7 parental antibody
B8 | 6.15 fold over 6E7 parental antibody | 5.11 fold over 6E7 parental antibody | 5.81 fold over 6E7 parental antibody
B9 | 1.74 fold over 6E7 parental antibody | 0.58 fold over 6E7 parental antibody | 1.72 fold over 6E7 parental antibody
B10 | 3.26 fold over 6E7 parental antibody | 3.35 fold over 6E7 parental antibody | 3.63 fold over 6E7 parental antibody
B11 | 5.08 fold over 6E7 parental antibody | 3.63 fold over 6E7 parental antibody | 5.22 fold over 6E7 parental antibody
B12 | 1.25 fold over 6E7 parental antibody | 0.66 fold over 6E7 parental antibody | 1.17 fold over 6E7 parental antibody
B13 | 3.08 fold over 6E7 parental antibody | 2.63 fold over 6E7 parental antibody | 3.61 fold over 6E7 parental antibody
B14 | 3.38 fold over 6E7 parental antibody | 4 fold over 6E7 parental antibody | 3.44 fold over 6E7 parental antibody
B15 | 5.5 fold over 6E7 parental antibody | 5.67 fold over 6E7 parental antibody | 5.69 fold over 6E7 parental antibody
B16 | 1.53 fold over 6E7 parental antibody | 0.84 fold over 6E7 parental antibody | 1.67 fold over 6E7 parental antibody
B17 | 6.51 fold over 6E7 parental antibody | 5.02 fold over 6E7 parental antibody | 6.58 fold over 6E7 parental antibody
B18 | 5.37 fold over 6E7 parental antibody | 4.22 fold over 6E7 parental antibody | 5.51 fold over 6E7 parental antibody
B19 | 3.57 fold over 6E7 parental antibody | 2.83 fold over 6E7 parental antibody | 3.47 fold over 6E7 parental antibody
B20 | 4.23 fold over 6E7 parental antibody | 3.15 fold over 6E7 parental antibody | 4.7 fold over 6E7 parental antibody
B21 | 4.01 fold over 6E7 parental antibody | 3.57 fold over 6E7 parental antibody | 4.04 fold over 6E7 parental antibody
B22 | 3 fold over 6E7 parental antibody | 1.78 fold over 6E7 parental antibody | 3.09 fold over 6E7 parental antibody
B23 | 2.81 fold over 6E7 parental antibody | 1.83 fold over 6E7 parental antibody | 3.18 fold over 6E7 parental antibody
